# Test results taken from paper PMC10275869.
# Assays:
# Assay in all cases: SEC; 100-200 μg of protein on a Superose 6 Increase 10/300GL column
# [1] = biological target: LayV F clamp2 (prefusion Langya virus fusion glycoprotein ectodomain stabilised with the clamp2 molecular clamp) (Langya virus)
# [2] = biological target: unstabilised LayV F (ectodomain with C-Tag, without clamp2) (Langya virus)
# [3] = biological target: unstabilised MojV F (ectodomain with C-Tag, without clamp2) (Mòjiāng virus)
substance,measurement,setting,value
LayV F clamp2 (prefusion Langya virus fusion glycoprotein ectodomain stabilised with the clamp2 molecular clamp) (domain or fragment),stoichiometry N,[1],3
"unstabilised LayV F (ectodomain with C-Tag, without clamp2) (domain or fragment)",stoichiometry N,[2],3
"unstabilised MojV F (ectodomain with C-Tag, without clamp2) (domain or fragment)",stoichiometry N,[3],3
